This is an account of results in patent US20230272011A1 (AVACTA LIFE SCIENCES, published 2023).

For test [1], the target named is T1, human PD-L1-Fc (R&D Systems) chimeric protein (human, UniProt Q9NZQ7 19-239).
T1 construct: Bought reagent; also called rhPD-L1-Fc; huPD-L1; Fc part of the bought chimera not given, not described
The experiment in a line: SPR (Biacore T200), PD-L1-Fc amine-coupled to CM5, Affimer analyte; apparent KD. As to the method:
(§1) ILF dimer production from E. coli was performed as described in Example 3. Briefly, protein was purified using three stages: affinity capture, IEX, and preparative SEC. […] To analyze PD-L1-Fc binding kinetics, a Biacore T200 kinetic analysis was performed using running buffer HBS-EP+ and series S sensor CM5 (GE Healthcare) chip Fc2 immobilized with PD-L1-Fc (R&D Systems) in 10 mM sodium acetate pH 4.0 using amine coupling reagents (GE Healthcare). The concentration titration of ILF AFFIMER® polypeptides was run as analyte at a flow rate of 30 μl/min. […] with 3 mM NaOH (GE healthcare) for 20 seconds at 20 μl/min flow rate. The Fc2-1 data blank was subtracted and fit to a 1:1 Langmuir binding model (Biacore evaluation software; GE) to calculate an apparent KD value.

Test [2] concerns the target T2, human serum albumin (human, UniProt P02768 25-609).
T2 construct: mature; Bought protein; biotinylated in the Octet and HTRF assays; also called HSA; HuSA
The experiment in a line: SPR (Biacore), immobilised HSA, Affimer analyte.

The target of test [3] is T1, human PD-L1-Fc (R&D Systems) chimeric …. The experiment in a line: SPR (Biacore T200), PD-L1-Fc amine-coupled to CM5, Affimer analyte. As for the experimental part: as §1
The target of test [4] is T2, human serum albumin. The experiment in a line: SPR (Biacore) binding response to HSA at pH 7.4, Affimer at 50 nM. The source says:
Final clones were sequence-verified, produced from E. coli, and affinity purified as described in Example 3.

The target in test [5] is T2, human serum albumin. The experiment in a line: Biacore, immobilised HSA, pH 7.4. As to the method:
Affinities for mouse, human, and cynomolgus serum were also measured at pH 7.4 for four (4) AFFIMER® binders using surface plasmon resonance (SPR) (FIG. 5, Table 5). […] A concentration titration of AFFIMER® monomers was run as analyte at a flow rate of 30 μl/min or 60 μl/min. Fc2-1, Fc3-1 and Fc4-1 kinetic data was blank subtracted and fit to a 1:1 Langmuir binding model (BIAcore Evalution software; GE) to calculate KD values.
The AFFIMER® polypeptides were produced and purified from E. coli as described in Example 3.

T1 sequence (Q9NZQ7 19-239, change not shown): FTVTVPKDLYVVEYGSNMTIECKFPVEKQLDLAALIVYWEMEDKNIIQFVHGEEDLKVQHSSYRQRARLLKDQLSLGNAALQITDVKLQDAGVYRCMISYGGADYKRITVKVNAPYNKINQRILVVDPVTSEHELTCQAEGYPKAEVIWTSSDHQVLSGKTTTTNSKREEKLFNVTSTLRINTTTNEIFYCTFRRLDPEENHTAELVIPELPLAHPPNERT

B1: AVA04-236 XT8 (designed binder)
chain: MIPRGLSEAKPATPEIQEIVDKVKPQLEEKTNETYGKLEAVQYKTQVLAKEHGPDSWWSTNYYIKVRAGDNKYMHLKVFNGPQEKNQWVEEADRVLTGYQVDKNKDDELTGFAEAAAKEAAAKEAAAKEAAAKEAAAKEAAAKMIPRGLSEAKPATPEIQEIVDKVKPQLEEKTNETYGKLEAVQYKTQVLANFFQRRWPGSTNYYIKVRAGDNKYMHLKVFNGPWKFRNTDRGADRVLTGYQVDKNKDDELTGFHHHHHH
Take B1: the Kd in test [1] came out at 4.57 nM. Besides, in test [2], the Kd was 9.5 nM, the off-rate constant (koff) was 0.00252 s⁻¹ and the kon was 267000 M⁻¹ s⁻¹. Further, in test [3], the koff was 0.00695 s⁻¹ and the kon turned out to be 1.52e+06 M⁻¹ s⁻¹.

B2: AVA04-261 (designed binder)
chain: MIPRGLSEAKPATPEIQEIVDKVKPQLEEKTNETYGKLEAVQYKTQVLAHAYGPRDWDSTNYYIKVRAGDNKYMHLKVFNGPPADHVLEEAADRVLTGYQVDKNKDDELTGF
In the case of B2, the Kd in test [1] amounted to 2.95 nM. In test [3], this molecule displayed a koff of 0.0109 s⁻¹ and a kon of 3.68e+06 M⁻¹ s⁻¹.

B3: AVA04-236 XT7 (designed binder)
chain: MIPRGLSEAKPATPEIQEIVDKVKPQLEEKTNETYGKLEAVQYKTQVLAKEHGPDSWWSTNYYIKVRAGDNKYMHLKVFNGPQEKNQWVEEADRVLTGYQVDKNKDDELTGFGGGGSGGGGSGGGGSGGGGSGGGGSGGGGSMIPRGLSEAKPATPEIQEIVDKVKPQLEEKTNETYGKLEAVQYKTQVLANFFQRRWPGSTNYYIKVRAGDNKYMHLKVFNGPWKFRNTDRGADRVLTGYQVDKNKDDELTGFHHHHHH
Take B3: the Kd in test [1] was found to be 4.86 nM. Moreover, in test [2], the Kd was 13.3 nM, the koff turned out to be 0.00336 s⁻¹ and the kon is 253000 M⁻¹ s⁻¹. In test [3], this molecule gave a koff of 0.00763 s⁻¹ and a kon of 1.57e+06 M⁻¹ s⁻¹.

B4: AVA04-269 XT11 (designed binder)
chain: MIPRGLSEAKPATPEIQEIVDKVKPQLEEKTNETYGKLEAVQYKTQVLAKEYGPEEWWSTNYYIKVRAGDNKYMHLKVFNGPGDYEQVLIHADRVLTGYQVDKNKDDELTGFGGGGSGGGGSGGGGSGGGGSGGGGSGGGGSMIPRGLSEAKPATPEIQEIVDKVKPQLEEKTNETYGKLEAVQYKTQVLANFFQRRWPGSTNYYIKVRAGDNKYMHLKVFNGPWKFRNTDRGADRVLTGYQVDKNKDDELTGFHHHHHH
Turning to B4, in test [1], the Kd amounted to 4.45 nM. In test [2], this molecule had a Kd of 15.5 nM, a koff of 0.00234 s⁻¹ and a kon of 151000 M⁻¹ s⁻¹. In test [3], this molecule yielded a koff of 0.00354 s⁻¹ and an on-rate (kon) of 796000 M⁻¹ s⁻¹.

B5: HSA-41 D89A (designed binder)
chain: MIPRGLSEAKPATPEIQEIVDKVKPQLEEKTNETYGKLEAVQYKTQVLANFFQRRWPGSTNYYIKVRAGDNKYMHLKVFNGPWKFRNTARGADRVLTGYQVDKNKDDELTGFHHHHHH
On to B5, for which the “binding response” value in test [4] was 26.1.

B6: HSA-41 T88A (designed binder)
chain: MIPRGLSEAKPATPEIQEIVDKVKPQLEEKTNETYGKLEAVQYKTQVLANFFQRRWPGSTNYYIKVRAGDNKYMHLKVFNGPWKFRNADRGADRVLTGYQVDKNKDDELTGFHHHHHH
B6: the “binding response” value in test [4] turned out to be 27.9.

B7: HSA-41 R86A (designed binder)
chain: MIPRGLSEAKPATPEIQEIVDKVKPQLEEKTNETYGKLEAVQYKTQVLANFFQRRWPGSTNYYIKVRAGDNKYMHLKVFNGPWKFANTDRGADRVLTGYQVDKNKDDELTGFHHHHHH
In the case of B7, the “binding response” value in test [4] came to 19.1.

B8: HSA-41 R90A (designed binder)
chain: MIPRGLSEAKPATPEIQEIVDKVKPQLEEKTNETYGKLEAVQYKTQVLANFFQRRWPGSTNYYIKVRAGDNKYMHLKVFNGPWKFRNTDAGADRVLTGYQVDKNKDDELTGFHHHHHH
As for B8, in test [4], the “binding response” value came to 17.2.

B9: HSA-41 G58A (designed binder)
chain: MIPRGLSEAKPATPEIQEIVDKVKPQLEEKTNETYGKLEAVQYKTQVLANFFQRRWPASTNYYIKVRAGDNKYMHLKVFNGPWKFRNTDRGADRVLTGYQVDKNKDDELTGFHHHHHH
For B9, the “binding response” value in test [4] was determined as 6.5.

B10: HSA-41 N50A (designed binder)
chain: MIPRGLSEAKPATPEIQEIVDKVKPQLEEKTNETYGKLEAVQYKTQVLAAFFQRRWPGSTNYYIKVRAGDNKYMHLKVFNGPWKFRNTDRGADRVLTGYQVDKNKDDELTGFHHHHHH
In the case of B10, the “binding response” value in test [4] was determined as 13.

B11: HSA-41 R54A (designed binder)
chain: MIPRGLSEAKPATPEIQEIVDKVKPQLEEKTNETYGKLEAVQYKTQVLANFFQARWPGSTNYYIKVRAGDNKYMHLKVFNGPWKFRNTDRGADRVLTGYQVDKNKDDELTGFHHHHHH
On to B11, for which, in test [4], the “binding response” value is 11.9.

B12: HSA-41 K84A (designed binder)
chain: MIPRGLSEAKPATPEIQEIVDKVKPQLEEKTNETYGKLEAVQYKTQVLANFFQRRWPGSTNYYIKVRAGDNKYMHLKVFNGPWAFRNTDRGADRVLTGYQVDKNKDDELTGFHHHHHH
On to B12, for which the “binding response” value in test [4] came to 23.5.

B13: HSA-41 P57A (designed binder)
chain: MIPRGLSEAKPATPEIQEIVDKVKPQLEEKTNETYGKLEAVQYKTQVLANFFQRRWAGSTNYYIKVRAGDNKYMHLKVFNGPWKFRNTDRGADRVLTGYQVDKNKDDELTGFHHHHHH
For B13, the “binding response” value in test [4] turned out to be 23.2.

B14: HSA-41 F85A (designed binder)
chain: MIPRGLSEAKPATPEIQEIVDKVKPQLEEKTNETYGKLEAVQYKTQVLANFFQRRWPGSTNYYIKVRAGDNKYMHLKVFNGPWKARNTDRGADRVLTGYQVDKNKDDELTGFHHHHHH
B14: the “binding response” value in test [4] worked out at 26.6.

B15: HSA-41 G91A (designed binder)
chain: MIPRGLSEAKPATPEIQEIVDKVKPQLEEKTNETYGKLEAVQYKTQVLANFFQRRWPGSTNYYIKVRAGDNKYMHLKVFNGPWKFRNTDRAADRVLTGYQVDKNKDDELTGFHHHHHH
B15: the “binding response” value in test [4] turned out to be 17.8.

B16: HSA-41 N87A (designed binder)
chain: MIPRGLSEAKPATPEIQEIVDKVKPQLEEKTNETYGKLEAVQYKTQVLANFFQRRWPGSTNYYIKVRAGDNKYMHLKVFNGPWKFRATDRGADRVLTGYQVDKNKDDELTGFHHHHHH
Regarding B16, the “binding response” value in test [4] amounted to 25.8.

B17: HSA-41 Q53A (designed binder)
chain: MIPRGLSEAKPATPEIQEIVDKVKPQLEEKTNETYGKLEAVQYKTQVLANFFARRWPGSTNYYIKVRAGDNKYMHLKVFNGPWKFRNTDRGADRVLTGYQVDKNKDDELTGFHHHHHH
Consider B17, for which the “binding response” value in test [4] amounted to 23.5.

B18: HSA-41 DI (designed binder)
chain: MIPRGLSEAKPATPEIQEIVDKVKPQLEEKTNETYGKLEAVQYKTQVLANFFQRRWPGSTNYYIKVRAGDNKYMHLKVFNGPWKFRNTDRGADRVLTGYQVDKNKDDELTGFGGGGSGGGGSGGGGSGGGGSGGGGSGGGGSMIPRGLSEAKPATPEIQEIVDKVKPQLEEKTNETYGKLEAVQYKTQVLANFFQRRWPGSTNYYIKVRAGDNKYMHLKVFNGPWKFRNTDRGADRVLTGYQVDKNKDDELTGFHHHHHH
notes: also called ILF homodimer with flexible linker; ILF dimer HSA-41 DI
Regarding B18, in test [5], the Kd stood at 0.201 nM, the off-rate constant (koff) was determined as 0.000959 s⁻¹ and the kon stood at 4.77e+06 M⁻¹ s⁻¹.

B19: HSA-41 BK (designed binder)
chain: MIPRGLSEAKPATPEIQEIVDKVKPQLEEKTNETYGKLEAVQYKTQVLANFFQRRWPGSTNYYIKVRAGDNKYMHLKVFNGPWKFRNTDRGADRVLTGYQVDKNKDDELTGFAEAAAKEAAAKEAAAKEAAAKEAAAKEAAAKMIPRGLSEAKPATPEIQEIVDKVKPQLEEKTNETYGKLEAVQYKTQVLANFFQRRWPGSTNYYIKVRAGDNKYMHLKVFNGPWKFRNTDRGADRVLTGYQVDKNKDDELTGFHHHHHH
notes: also called ILF homodimer with rigid linker
As to B19, in test [5], the Kd came out at 0.128 nM, the koff turned out to be 0.000994 s⁻¹ and the kon stood at 7.74e+06 M⁻¹ s⁻¹.

B20: AVA04-236 (designed binder)
chain: MIPRGLSEAKPATPEIQEIVDKVKPQLEEKTNETYGKLEAVQYKTQVLAKEHGPDSWWSTNYYIKVRAGDNKYMHLKVFNGPQEKNQWVEEADRVLTGYQVDKNKDDELTGF
On to B20, for which the Kd in test [1] amounted to 5.43 nM. Also, in test [3], the koff is 0.00977 s⁻¹ and the kon amounted to 1.8e+06 M⁻¹ s⁻¹.

B21: AVA04-269 (designed binder)
chain: MIPRGLSEAKPATPEIQEIVDKVKPQLEEKTNETYGKLEAVQYKTQVLAKEYGPEEWWSTNYYIKVRAGDNKYMHLKVFNGPGDYEQVLIHADRVLTGYQVDKNKDDELTGF
In the case of B21, the Kd in test [1] is 1.68 nM. Besides, in test [3], the koff turned out to be 0.00345 s⁻¹ and the kon stood at 2.05e+06 M⁻¹ s⁻¹.
